# Experimental data: patent US20250163161A1 (TECHNISCHE UNIVERSIT T DARMSTADT, published 2025)
# Where two headings read alike, the source gives them in different places.
# Columns and labels:
# Assay in all cases: BLI
# [1] = molecular target: T1, epidermal growth factor receptor (EGFR), soluble, as used in BLI (UniProt P00533 25-645)
# T1 construct: extracellular domain; also called EGFR-ECD
# [2] = molecular target: T2, programmed death-ligand 1 (PD-L1), soluble, as used in BLI (UniProt Q9NZQ7 19-238)
# T2 construct: extracellular domain; also called PD-L1-ECD
# T2 sequence (Q9NZQ7 19-238): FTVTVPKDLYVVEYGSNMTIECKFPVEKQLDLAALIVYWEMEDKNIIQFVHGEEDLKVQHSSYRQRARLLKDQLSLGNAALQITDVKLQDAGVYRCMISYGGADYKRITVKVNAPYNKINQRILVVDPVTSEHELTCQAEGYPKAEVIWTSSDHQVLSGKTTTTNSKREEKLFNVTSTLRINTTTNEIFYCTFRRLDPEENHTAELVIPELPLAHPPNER
# CD16 [3] = molecular target: T3, CD16 (UniProt P08637 17-208)
# T3 construct: also called Fcγ-receptor IIIa
# T3 sequence (P08637 17-208): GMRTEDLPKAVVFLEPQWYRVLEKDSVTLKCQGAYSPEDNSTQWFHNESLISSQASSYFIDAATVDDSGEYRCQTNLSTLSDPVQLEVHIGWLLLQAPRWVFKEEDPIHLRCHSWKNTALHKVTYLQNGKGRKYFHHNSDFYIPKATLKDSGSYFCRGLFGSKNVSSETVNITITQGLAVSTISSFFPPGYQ
# [4] = molecular target: T1, epidermal growth factor receptor …; remark: listed apart in the source
# [5] = molecular target: T2, programmed death-ligand 1 (PD-L1), …; remark: listed apart in the source
# CD16 [6] = molecular target: T3, CD16; remark: listed apart in the source
Binder,Kd [1] [nM],Kd [2] [nM],Kd (CD16 [3]) [nM],Kd [4] [nM],Kd [5] [nM],Kd (CD16 [6]) [nM]
"HC16/ICI2 KiH variant: HCP-LCE on one side and CD16 binder HC16 on the other, paired with the HCP-LCE light chain (bispecific antibody) VH 1: AVTLDESGGGLQTPGGALSLVCKASGFDFSSYDMAWVRQAPGKGLEWVAGIKSNGPWTNYGAAVKGRATISRDNGQSTVRLQLNNLRAEDTAIYYCAKPGAGYVGWDAAGTIDSWGHGTEVIVSS VH 2: AVTLDESGGGLQTPGGTLSLVCRASGFSFSSSDMFWVRQAPGKGLEYVAQISKDGSGKYYGAAVKGRATISRDNGQSTVRLQLNNLRAEDTGIYFCAKSGRGYVTAGRIDTWGHGTEVIVSS light: ALTQPSSVSANLGETVKITCSGGAYSDCGWYQQKSPGSAPVTVIYYNDKRPSDIPSRFSGSTFGSTATLTITGVQAEDEAVYYCGGYDSRTGYVGVFGAGTTLTVLGQPKANPTVTLFPPSSEELQANKATLVCLISDFYPGAVTVAWKADGSPVKAGVETTKPSKQSNNKYAASSYLSLTPEQWKSHRSYSCQVTHEGSTVEKTVAPTECS",320,57.7,21.9,,,
"HC16_outer/ICI2_inner trispecific variant (full-length HC16_outer and ICI2_inner LALA construct) (bispecific antibody, human IgG1, lambda, L234A L235A, Two Fabs on each side, common light chain LCE; also called HC16_outer/ICI2_inner LALA) heavy: not shown light: ALTQPSSVSANLGETVKITCSGGAYSDCGWYQQKSPGSAPVTVIYYNDKRPSDIPSRFSGSTFGSTATLTITGVQAEDEAVYYCGGYDSRTGYVGVFGAGTTLTVLGQPKANPTVTLFPPSSEELQANKATLVCLISDFYPGAVTVAWKADGSPVKAGVETTKPSKQSNNKYAASSYLSLTPEQWKSHRSYSCQVTHEGSTVEKTVAPTECS",331,68,17,,,
"one-armed ICI2_outer and NKE14_inner variant V3 (bispecific antibody, human IgG1, lambda, L234A L235A, also called oaICI2_outer) heavy 1: AVTLDESGGGLQTPGGALSLVCKASGFDFSSYDMAWVRQAPGKGLEWVAGIKSNGPWTNYGAAVKGRATISRDNGQSTVRLQLNNLRAEDTAIYYCAKPGAGYVGWDAAGTIDSWGHGTEVIVSSASTKGPSVFPLAPSSKSTSGGTAALGCLVKDYFPEPVTVSWNSGALTSGVHTFPAVLQSSGLYSLSSVVTVPSSSLGTQTYICNVNHKPSNTKVDKRVEPKSCDGGGGSGGGGSAVTLDESGGGLQTPGGGLSLVCKGSGFTFSSYNMGWVRQAPGKGLEFVASIDDDGSFTHYGAAVKGRATISRDNGQSTVRLQLNNLRVEDSGIYYCAKSSINGYRCSGGLCVPYITGNIDAWGHGTEVIVSSASTKGPSVFPLAPSSKSTSGGTAALGCLVKDYFPEPVTVSWNSGALTSGVHTFPAVLQSSGLYSLSSVVTVPSSSLGTQTYICNVNHKPSNTKVDKRVEPKSCDKTHTCPPCPAPEAAGGPSVFLFPPKPKDTLMISRTPEVTCVVVDVSHEDPEVKFNWYVDGVEVHNAKTKPREEQYNSTYRVVSVLTVLHQDWLNGKEYKCKVSNKALPAPIEKTISKAKGQPREPQVYTLPPSREEMTKNQVSLWCLVKGFYPSDIAVEWESNGQPENNYKTTPPVLDSDGSFFLYSKLTVDKSRWQQGNVFSCSVMHEALHNHYTQKSLSLSPG heavy 2: EPKSCDKTHTCPPCPAPEAAGGPSVFLFPPKPKDTLMISRTPEVTCVVVDVSHEDPEVKFNWYVDGVEVHNAKTKPREEQYNSTYRVVSVLTVLHQDWLNGKEYKCKVSNKALPAPIEKTISKAKGQPREPQVYTLPPSREEMTKNQVSLSCAVKGFYPSDIAVEWESNGQPENNYKTTPPVLDSDGSFFLVSKLTVDKSRWQQGNVFSCSVMHEALHNRFTQKSLSLSPG light: ALTQPSSVSANLGETVKITCSGGAYSDCGWYQQKSPGSAPVTVIYYNDKRPSDIPSRFSGSTFGSTATLTITGVQAEDEAVYYCGGYDSRTGYVGVFGAGTTLTVLGQPKANPTVTLFPPSSEELQANKATLVCLISDFYPGAVTVAWKADGSPVKAGVETTKPSKQSNNKYAASSYLSLTPEQWKSHRSYSCQVTHEGSTVEKTVAPTECS",,,,763,115,346
"NKE14_outer and ICI2_inner trispecific variant V4 (bispecific antibody, human IgG1, lambda, L234A L235A, Two Fabs on each side, common light chain LCE; also called NKE14_outer Fab) heavy: not shown light: ALTQPSSVSANLGETVKITCSGGAYSDCGWYQQKSPGSAPVTVIYYNDKRPSDIPSRFSGSTFGSTATLTITGVQAEDEAVYYCGGYDSRTGYVGVFGAGTTLTVLGQPKANPTVTLFPPSSEELQANKATLVCLISDFYPGAVTVAWKADGSPVKAGVETTKPSKQSNNKYAASSYLSLTPEQWKSHRSYSCQVTHEGSTVEKTVAPTECS",,,,603,125,302
"one-armed NKE14_outer and ICI2_inner variant V5 (bispecific antibody, human IgG1, lambda, L234A L235A, also called oaNKE14_outer) heavy 1: AVTLDESGGGLQTPGGGLSLVCKGSGFTFSSYNMGWVRQAPGKGLEFVASIDDDGSFTHYGAAVKGRATISRDNGQSTVRLQLNNLRVEDSGIYYCAKSSINGYRCSGGLCVPYITGNIDAWGHGTEVIVSSASTKGPSVFPLAPSSKSTSGGTAALGCLVKDYFPEPVTVSWNSGALTSGVHTFPAVLQSSGLYSLSSVVTVPSSSLGTQTYICNVNHKPSNTKVDKRVEPKSCDGGGGSGGGGSAVTLDESGGGLQTPGGALSLVCKASGFDFSSYDMAWVRQAPGKGLEWVAGIKSNGPWTNYGAAVKGRATISRDNGQSTVRLQLNNLRAEDTAIYYCAKPGAGYVGWDAAGTIDSWGHGTEVIVSSASTKGPSVFPLAPSSKSTSGGTAALGCLVKDYFPEPVTVSWNSGALTSGVHTFPAVLQSSGLYSLSSVVTVPSSSLGTQTYICNVNHKPSNTKVDKRVEPKSCDKTHTCPPCPAPEAAGGPSVFLFPPKPKDTLMISRTPEVTCVVVDVSHEDPEVKFNWYVDGVEVHNAKTKPREEQYNSTYRVVSVLTVLHQDWLNGKEYKCKVSNKALPAPIEKTISKAKGQPREPQVYTLPPSREEMTKNQVSLWCLVKGFYPSDIAVEWESNGQPENNYKTTPPVLDSDGSFFLYSKLTVDKSRWQQGNVFSCSVMHEALHNHYTQKSLSLSPG heavy 2: EPKSCDKTHTCPPCPAPEAAGGPSVFLFPPKPKDTLMISRTPEVTCVVVDVSHEDPEVKFNWYVDGVEVHNAKTKPREEQYNSTYRVVSVLTVLHQDWLNGKEYKCKVSNKALPAPIEKTISKAKGQPREPQVYTLPPSREEMTKNQVSLSCAVKGFYPSDIAVEWESNGQPENNYKTTPPVLDSDGSFFLVSKLTVDKSRWQQGNVFSCSVMHEALHNRFTQKSLSLSPG light: ALTQPSSVSANLGETVKITCSGGAYSDCGWYQQKSPGSAPVTVIYYNDKRPSDIPSRFSGSTFGSTATLTITGVQAEDEAVYYCGGYDSRTGYVGVFGAGTTLTVLGQPKANPTVTLFPPSSEELQANKATLVCLISDFYPGAVTVAWKADGSPVKAGVETTKPSKQSNNKYAASSYLSLTPEQWKSHRSYSCQVTHEGSTVEKTVAPTECS",,,,982,137,342
